The domain aggregation screens of Martell et al. (2025)

Assay: soluble fraction after stress (log2 fold change); higher = more stays soluble; pooled small domains, quantitative proteomics
Details: stress: 50 degC
In short: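 Each library was heated to 50°C as a stress step. The libraries, made up of small protein domains, were pooled and analysed at high throughput by quantitative proteomics. The reported value is the base-two logarithm of the fold change in each protein's soluble amount after stress, taken as a measure of aggregation propensity. The higher the value, the more protein stays in solution.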

Row | Sequence | soluble fraction (log2)
1 | HMEPREALDGLISERGETYASISRLLGRNSAYIQQFIKRGSPARLDQSDIALLALHFDVPVEMLGGKE | -0.42
2 | HMEPTIGTATVTSGSRLNMRSAKSTSASVVTRIPSGATVGVISYASDWSKVTYNGYTGYVSSPYISMNG | -0.198
3 | HMEPVIELGDRTLPIEITRHRRARRLTLRLAADGSAVRITLPHWARSAEATAFAHARRDWLAAQLAK | 0.0378
4 | HMEPVTETVYAMDTVNIRAAADQTSEKIGSVTVGTALTRTGTDGDWSIIDYNGTTGYVKSEFLSNTAPEV | -0.00262
5 | HMEQLIIQEELSGKRLDQLVSLLFPSLTRAHAQKLIKEGAVLVNEKPRKPAYAVMTGELLTVELPEPE | -0.0616
6 | HMEQNHYEVLGVSRDAIPEEIRKAYFEYARKLHPDANPDPGAAEQFMRIQTAYDVLSNPDRRHEYDGLLPP | -0.000773
7 | HMEQRREEFILLAKELLEKELRKQNLEVHENLKPDVLNDVAKRLGMVSMDDLLAAVGDGKITPGTVVSKIV | 0.064
8 | HMEQVLNVAVRRGELIMSSAAEQTVRIYSSAGSMVWQGKVSASDVTVELPSGVYVVNGKKVV | -1.19
9 | HMEQYFEDEELNDKFLEFLAMRKRVRKPVQTDRGMKMLLTSLHKLSGGDVGLMKQIIDQSLDNEWKKFVA | -0.673
10 | HMERDIATKHEVNRTVEAYSDIVKTLNLPSHKINLVEISFFNILKRSKPSPRENSILLGLAQKIKLHLEKK | -0.477
11 | HMERLKYSQVVDLFKGEQVKSFVLDESNQLKMELQDGSTVSYKLRSFEQFYLDLSDTVKEQKESGIITDYD | -0.746
12 | HMERPPHELLSDREYQTMVMIASGRTLTQIAEEMSLSPKTVSVYRARLLEKMKLKNNAELTHYALKHKLV | 0.0152
13 | HMERPSLDQVLAHAKALGIAPARFVAYADGRWGTGWRLSPHGRARAWEELDRHRNDPLGYRDKLDVALQSG | -0.0254
14 | HMESAQLIINVAGKVSNPGVYQLPQGSRVVDAIEAAGKQLKGVDISDINLARVLVDGEQILVGGV | 0.247
15 | HMESAVDVFRSILKEKGVTEEEVRQVVAARGKYTLETPIDDYPNEFLYGYVIRYWDQIFDIIQQSREAK | -0.321
16 | HMESEAKLGVAFNGKTRFDMTFPADADNKTIEEAVLADERAQKYLEGFQVAKVIIVPKRMVNIVLK | 0.24
17 | HMESEIYKKIEKSRLLELAFTKSQKGDLTGAYDLYYQAFTKYDVIADNQNRYFEDFISLIRRKQQQD | -0.739
18 | HMESGLPLPRFVSLGADEVNLRTGPGLRYPVAWVFVRKALPVEIVAEFEQWRRVRDFEGAEGWVHKAML | -0.36
19 | HMESGSSKINQDILETFTRGKKSLSISDISRLSGHHRHTVARYLDNLVSSGKLEMRQHGQKKKYYLSDIQP | 0.0308
20 | HMESILDDFPGLGAVRRAALLEHFGDIDRLRAASAVEITEVDGFGDVLARELHDFLHRPKPDA | -0.455
21 | HMESKKKTYTVKSGDTLVSILKREGVPQELIFKDYLGLFLELNPQISDINKLRVGQEIVLPVPG | 0.0119
22 | HMESLGEKIKNIRISNNLKQSELADILHISEKTISSWENNRTTPDLNMIYKISNYFKKSFYYLISDDYI | -1.02
23 | HMESMIGSLRGRLLELFGDGEVLIEVGGVGYRVIVTPTTTVRLGDVGGDVFVHVHHHIREADQTLYGF | -0.234
24 | HMESPSGGHRIALAFDQGTARAVDATYARLTGAGYEGRTKPWDAPWGQRYATVFDPDGNSVDLFAALE | -0.263
25 | HMESRDRVRQASAAGYRFMSTMAGHEPGFEEASRALFAGDQTAFEARITAWPVDVQTHLKKILAEAFTT | -0.734

Row | Sequence | soluble fraction (log2)
26 | HMESRLQAAIALRKAGEHEQSREALKILADEPALRAQALLNIAWSFDNQGHERDAEGYYLAAIE | -0.131
27 | HMESSKLQASIINYLERRPTQKFTAEELFKGLSLEKASVFNELVKELTSLERSHKVEITADDKFKIARPQ | -0.126
28 | HMESSSQLGFELARLVESGNDEEARALVQAKELSEADERKWLYHLGNLLHAAGRPLQASAIWREVGT | 0.0628
29 | HMESVQWSVFPSAKYVTIISFDPTTSGGSATAKFKVSDEARSKGFRFRIEAAIGEGIMRSEMYVIEE | 0.0612
30 | HMESWNRARILEKIRELHAQGVALNNASMRRLGYRGMMEAAARPQNFGSWEAAVRAAGIDYDRV | -0.00832
31 | HMETAVMPDVMKLDSTTAIQALKDKGFATIETYEVKSDRPAGVVVRQSETADSVVALSKEILLGVSNGADY | 0.304
32 | HMETGFADTLRKFRKEADMTQEKLAEALGVTTGAVYKWENGRSTPEVRLLVEMADLFGTSVDALLDYKVR | -0.622
33 | HMETGKLIKELRLKKGMTQEELADKTEVSSRTIQRIENGEVDPRAYTLQMIARALEVDYSLFME | 0.0531
34 | HMETIELSAPGGVRLDKLIADGTELSRSAAVKLIEQGNVLVNGSPAGKKDIPAAGAAVEITLPEPQ | -0.134
35 | HMETIGENIKTYRQKKGYTQEEVANRLHVTRQTISKWEKNYSIPDAEVLVKLADVLEVQTSQLLGV | 0.102
36 | HMETIGKRVRAARQELGLTMKQLHEQTGLSTGNISDIENDRNTPSVSSLVALGRALRRSLDWLLTGEE | -0.252
37 | HMETISEIWRLIDGLDEIYRVPLTMYYRSNRSVREIAETLGLSARTVETRIYRARRMIREKWSN | -2.23
38 | HMETITDRLNRRSLELNVSQADIIRTTGAGRGTVSGWFSGANAPSAKYLESLAVALKTSTTWLLSGKD | -0.741
39 | HMETKERDEQFLEMIRQNEGIIFKVASFYVDKEHPIGDLYQEVVLNLWKGYPSFRGESKYSTWIYRIALNT | -0.0833
40 | HMETKPTELMLEVHELRIGMFVHLDLGWMDHPFPLNRFKISTNSQIEQIKGLRLKQVKVMTALSDPTALS | -2.21
41 | HMETKQYIVEAQDEGTRLDVYLTKELGQSRSYVQSLVKEGHVQVNGKTGKSNLKLSSSSEILVTIPEVQ | -0.0648
42 | HMETLKINTHLGTLNLKKRGKKGTWQINIYFKNIEGDNHYRQSTGTNQLELAKAKAMNMITTEYSNRLAGI | -1.69
43 | HMETMSYAEFNAIRIGKAKLMLADPSLKIWEISEAVGYTDTAHFARTFKKLEGMSANEYRNSL | -1.12
44 | HMETNFTGTRIATARKAKNMSQAQLAQQLFISPQAVGKWERGESIPDIVTVVKLADVLGVDLNYFSE | -0.12
45 | HMETPQIVARGDLITMVFRSGSLVLTAKGKALENGAMGDTIRVVNSDSNKTLAARVSASREVTVSE | -0.417
46 | HMETPSNTAGITHATSDGYIFKGESDIIGRNSFGFIVKHGSHNHIIPFDSLRGTKWEYLINKYT | 0.21
47 | HMETSVDEVYKKIQAYIEAEDKHKPLSDQKLAEQLQSDGLKVSRRTVAKYREKLNIASSSKRKR | 0.358
48 | HMETTVPNVLNHNISTGEILLKENNLNFRIQYIPSNKDEAVGTIINSVPTSGEKVKFGTVVDLKVL | 0.0465
49 | HMETVRHFRLDWSQAADRLDKVLASLMNDVSRARIQEWIRLGAVSVNGEILTDVRAKVAGGDAIDVTPQTA | -0.0893
50 | HMETVRLSVDAQGAYYWNEQRVDDSALPDLLREASGRKPQPDLHIRGDKAVRYERVAEAMAAAQRAGLKKI | 0.0588

Row | Sequence | soluble fraction (log2)
51 | HMETVVTEVKTTDVVNIRTSDSETADKLSKAAIGDTFPLLEERGNGWSKVAYNGEEAFIKSDYLEPSKTE | 0.42
52 | HMETYEFNITDKEQTGMRVDKLLPELNSDWSRNQIQDWIKAGLVVANDKVVKSNYKVKLNDHIVVTEKEV | 0.26
53 | HMETYPINVETTGTNVLLRTGPSTSSNIIKTITDKGTVFLSIERGINSDWQKVVTPDGTIGYMSGKY | 0.000612
54 | HMEVAVQFIEFKIPENHAWIGKEIREITFPPESILVLIIRDGKKLVPNGKTVLKEGDSLILSGKASD | -0.538
55 | HMEVDDEAIYQGHEPSIRLHRLLKDVGYNSALLPSVVTQIFKDFPGIELAKALPIAMQLLNED | -0.403
56 | HMEVFGDTKEEQMIIDILKLGITDLEHLQAKSMLEPAIFSQTLTMLEISGKIRPLGAGHWTL | -1.04
57 | HMEVFTPSEANVAEAREILAAMATAKANGEGATVYKGRLVDIASIKQAEVIVRQSEMIQSAH | 0.408
58 | HMEVIDQLFKIALTLFDIDKGENNSISQDLVDKVIEQMKTTAPTFIKRELSEDEVKKLRFEIQNHFNV | -0.221
59 | HMEVKSGFVHLTGAVKSPGVYPISIGMRLFEVIALAGGFTAKADRESVNLARTVTDGEQIIVSGSG | -1.7
60 | HMEVLEGFIEDIKFKSEESGYTVAKLNNRNKSIVIVGTMPFISEGQHVKLTGEWKIHQKFGAQFNVKELEE | -0.347
61 | HMEVMYFIYQQEEPMRIDKFLVNEMEDFSRNSIQIYIKDNHVLVNDKVVKANYILKKGDAISITIPDPI | -0.404
62 | HMEVNMEEKMEFVHSYIKTHKTFLFRQLLSESKSRTQVIVTFLVILELIKGGKISVTQENRTDDILINSL | -0.342
63 | HMEVPDTIIRLRELVAAMPEQWQKVYRLVFMEGLSKAKAGKKIGISDVRVGQLVKKINAAIAGDETLK | -0.714
64 | HMEVPMELPRQLRANRERLGLSQEDVAHAIYVSRQTMSSWERGKTYPDVQSLMLLSHLFGISIDELVKGDV | -1.55
65 | HMEVPVQYIKFKIPENHFWAKKKVADIILPPETLLVLLQRGSDKMIPDGETVLLPEDTLVLIAKAPG | -0.0836
66 | HMEVSVPDFTGMSKSDAQNAAKEAGLTVNFEEDYDNQVPAGQVIRSNPSAGEKVKKNSSVTVTLSKGSN | -0.0943
67 | HMEVSYSLPRFHKGKNPYVDFYQVDPRTLRMRRKKFLLRGVRDAVLLEQRAADLVALLTERLHSGWNAWDD | -2.11
68 | HMEVTENQEKHAYQEAMDQALRFLAPRFLSRAELTRKLLQKEHDRDVIDAVIDRLEELDYVDDAR | 0.0309
69 | HMEVTLGLGSMVRLLGEPYLGSTGRVVELPDQAERFASGLTAKVAVVERHDGELIRVPVTNLLLME | -0.191
70 | HMEVTLTLKSFGTAKVAVIKAIQSITGLGLMDAKKLVDAAPSVIKEKISPSEAEQYKKTLVDAGAEVEI | -0.806
71 | HMEVVVPDFEKIYIRDLDKFVEGHNVRYEIVDSIYNLEKDKGTVVDQDPEPGSKVKHGRVIYLTVNAML | -0.207
72 | HMEVVVPEDLDAALQQASRAQSFFSSLSYTHKKEYVAWINEAKRAETRAMRIQKTITMLESGQRGH | -1.14
73 | HMEWEVHSVTVTPELSGERLDVAATALLSQFSRALVQRWIDANELTLNERPVKAKSKVRVGDLIAVKAK | -0.874
74 | HMEWLENIKKLKKEKGLTNESLSEKSGISVGTLNKLLSGATTDPKLSTLRPLADALEVSLDELLAI | 0.166
75 | HMEWTDIPTHKVPNVVGKSVEEAKKKLSKFTIEYSGTGEKVVAQSPDAGEKLEEGGTVRLLL | 0.203
